T1: Human LAG-3 protein (Cat#LA3-5222, Acrobiosystems) (human, UniProt P18627 23-450)
T1 construct: Bought protein; also called recombinant human LAG-3; LAG3 recombinant protein
T1 sequence: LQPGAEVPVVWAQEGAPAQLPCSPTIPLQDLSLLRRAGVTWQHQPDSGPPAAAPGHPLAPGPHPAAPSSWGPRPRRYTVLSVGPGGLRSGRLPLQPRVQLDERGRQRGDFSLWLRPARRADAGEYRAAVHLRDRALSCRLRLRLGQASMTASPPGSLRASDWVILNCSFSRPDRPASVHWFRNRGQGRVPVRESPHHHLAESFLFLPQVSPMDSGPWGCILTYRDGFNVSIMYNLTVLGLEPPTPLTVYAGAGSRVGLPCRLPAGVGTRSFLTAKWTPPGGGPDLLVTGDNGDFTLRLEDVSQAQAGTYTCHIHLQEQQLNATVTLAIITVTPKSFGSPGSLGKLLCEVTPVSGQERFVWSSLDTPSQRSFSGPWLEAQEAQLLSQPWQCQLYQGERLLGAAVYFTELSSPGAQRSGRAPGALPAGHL

T2: Mouse LAG-3 (Acrobiosystems) (mouse, UniProt Q61790 24-442, limits assumed)
T2 construct: Bought protein; also called mouse LAG-3 recombinant protein
T2 sequence (looked up): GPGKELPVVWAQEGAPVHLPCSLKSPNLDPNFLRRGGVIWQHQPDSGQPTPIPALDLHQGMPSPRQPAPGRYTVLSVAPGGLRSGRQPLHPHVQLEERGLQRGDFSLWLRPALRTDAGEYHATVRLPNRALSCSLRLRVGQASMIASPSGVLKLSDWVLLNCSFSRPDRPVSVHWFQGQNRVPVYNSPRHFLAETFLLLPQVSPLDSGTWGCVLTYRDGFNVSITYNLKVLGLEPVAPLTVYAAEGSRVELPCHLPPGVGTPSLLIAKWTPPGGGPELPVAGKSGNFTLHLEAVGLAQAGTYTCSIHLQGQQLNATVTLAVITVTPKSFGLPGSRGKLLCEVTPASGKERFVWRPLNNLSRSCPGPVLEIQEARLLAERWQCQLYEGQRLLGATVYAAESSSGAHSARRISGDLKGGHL

T3: recombinant rhesus monkey LAG-3 protein (Amino acids 1-450 of XM_001108923.3 fused to human IgG1 Fc domain) (rhesus monkey; human, UniProt P18627 23-450)
T3 construct: not shown: human IgG1 Fc domain
T3 chain: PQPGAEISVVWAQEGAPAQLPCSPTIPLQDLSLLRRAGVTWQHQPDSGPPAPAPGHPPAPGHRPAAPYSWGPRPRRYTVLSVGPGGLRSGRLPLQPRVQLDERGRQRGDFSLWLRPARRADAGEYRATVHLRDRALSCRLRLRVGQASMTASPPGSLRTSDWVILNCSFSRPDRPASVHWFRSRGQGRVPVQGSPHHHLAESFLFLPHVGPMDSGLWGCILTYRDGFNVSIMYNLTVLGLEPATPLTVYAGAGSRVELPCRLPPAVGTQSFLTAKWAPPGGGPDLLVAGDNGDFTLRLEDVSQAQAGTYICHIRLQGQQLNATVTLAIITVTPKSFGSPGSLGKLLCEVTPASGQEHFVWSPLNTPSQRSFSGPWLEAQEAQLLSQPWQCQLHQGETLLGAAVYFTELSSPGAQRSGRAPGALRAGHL

T4: Recombinant LAG-3 domain 1-2 (Amino acid 1-262) fused to human IgG1 Fc domain (human, UniProt P18627 23-262)
T4 construct: also called domain 1-2 of human LAG-3; not shown: human IgG1 Fc domain
T4 sequence: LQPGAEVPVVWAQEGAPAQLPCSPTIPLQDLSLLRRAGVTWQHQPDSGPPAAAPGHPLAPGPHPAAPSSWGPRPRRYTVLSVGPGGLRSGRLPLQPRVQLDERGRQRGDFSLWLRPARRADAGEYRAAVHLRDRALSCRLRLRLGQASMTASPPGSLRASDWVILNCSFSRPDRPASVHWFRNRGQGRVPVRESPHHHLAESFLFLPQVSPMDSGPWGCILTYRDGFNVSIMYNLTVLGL

T5: LAG-3 fusion protein comprising human LAG-3 extracellular domain fused to mouse Fc (SinoBiological, … (human; mouse, UniProt P18627 23-450)
T5 construct: Bought fusion protein; not shown: mouse Fc
T5 sequence: T1 sequence

B1: clone 6# as single chain Fv displayed on phage (scFv)
scFv: QVQLVQSGGGVVQPGRSLRLPCAASGFTFSSYGMHWVRQAPGKGLEWVAAISYDGSNKYYADSVKGRFTISRDNSKNTLYLQMNSLRAEDTAVYYCAREGSYYLEGIDYWGQGTLVTVSSSGGSTITSYNVYYTKLSSSGTQSVLTQPPSVSEAPRQRVTISCSGSSSNIGDNAVNWYQQLPGKAPTLLIYYDDLLPSGVPDRFSGSKSGTSASLAISGLQSEDEAEYYCAAWDDSLKGYVFGTGTKLTVLG
B2: anti-LAG-3 antibody 2# (antibody, V domains shown)
VH: QVQLQESGGGVVRPGGSLRLSCAASGFTFDDYGMSWVRQAPGKGLEWVSGINWSGGSTYYADSVKGRSTISRDNSKNTLYLQMNSLRAEDTAVYYCATGGYWGQGTLVTVSS
VL: not shown
notes: elsewhere IgG4 is preferred; also called Clone 2#; clone #2
B3: anti-LAG-3 antibody 8# (antibody, human IgG4 S228P, lambda, V domains shown)
VH: B2 VH
VL: SYELTQPPSVSVSPGQTASITCSGDKLGDKYTSWYQQKPGQSPLLVIYQSTKRPSGIPERFSGSNSGDTATLTISGTQPMDEADYYCQAWDSSTAVFGGGTKLTVLG
notes: also called Clone 8#; Clone 8
B4: anti-LAG-3 antibody 13# (antibody, human IgG4 S228P, lambda, V domains shown)
VH: B2 VH
VL: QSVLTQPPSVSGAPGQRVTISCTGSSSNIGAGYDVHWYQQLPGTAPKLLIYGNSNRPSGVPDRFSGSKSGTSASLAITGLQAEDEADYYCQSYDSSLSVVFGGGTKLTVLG
notes: The VH is the same as that of clone 8; also called Clone 13#; Clone 13
B5: anti-LAG-3 antibody 6# (antibody, human IgG4 S228P, lambda, V domains shown)
VH: QVQLVQSGGGVVQPGRSLRLPCAASGFTFSSYGMHWVRQAPGKGLEWVAAISYDGSNKYYADSVKGRFTISRDNSKNTLYLQMNSLRAEDTAVYYCAREGSYYLEGIDYWGQGTLVTVSS
VL: QSVLTQPPSVSEAPRQRVTISCSGSSSNIGDNAVNWYQQLPGKAPTLLIYYDDLLPSGVPDRFSGSKSGTSASLAISGLQSEDEAEYYCAAWDDSLKGYVFGTGTKLTVLG
notes: also called Clone 6#; Clone 6
B6: clone 8# as single chain Fv displayed on phage (scFv)
scFv: QVQLQESGGGVVRPGGSLRLSCAASGFTFDDYGMSWVRQAPGKGLEWVSGINWSGGSTYYADSVKGRSTISRDNSKNTLYLQMNSLRAEDTAVYYCATGGYWGQGTLVTVSSSGGSTITSYNVYYTKLSSSGTSYELTQPPSVSVSPGQTASITCSGDKLGDKYTSWYQQKPGQSPLLVIYQSTKRPSGIPERFSGSNSGDTATLTISGTQPMDEADYYCQAWDSSTAVFGGGTKLTVLG

Experiments:
[1] = molecular target: T1, Human LAG-3 protein (Cat#LA3-5222, …); assay: phage ELISA on coated LAG3
[2] = molecular target: T6, human CD4 recombinant protein (Sino Biological) (human, UniProt P01730 26-390, limits assumed); assay: ELISA, human CD4 recombinant protein immobilized
T6 construct: Bought protein

[3] = molecular target: T2, Mouse LAG-3 (Acrobiosystems); assay: ELISA, mouse LAG-3 recombinant protein immobilized
[4] = molecular target: T3, recombinant rhesus monkey LAG-3 protein …; assay: BLI ForteBio Octet RED 96, biotin labeled antibody on streptavidin sensor, antigen 3.125-100 nM, 1:1 fit
[5] = molecular target: T1, Human LAG-3 protein (Cat#LA3-5222, …); assay: as above
[6] = molecular target: cynomolgus monkey LAG-3 protein (Cat#LA3-C52A0, Acrobiosystems) (cynomolgus monkey); assay: as above
[7] = molecular target: T1, Human LAG-3 protein (Cat#LA3-5222, …); assay: SPR Biacore T200, antibody captured on anti-human IgG (Fc), human LAG-3 injected 6.25-200 nM, 1:1 Langmuir fit
[8] = molecular target: T1, Human LAG-3 protein (Cat#LA3-5222, …); assay: ELISA, human LAG-3 recombinant protein immobilized, serially diluted antibody, anti-human IgG-HRP, OD450-620
[9] = molecular target: T4, Recombinant LAG-3 domain 1-2 (Amino …); assay: ELISA, human LAG-3 domain 1-2 Fc fusion immobilized, serially diluted antibody, anti-human F(ab')2-HRP, OD450-620
[10] = molecular target: T1, Human LAG-3 protein (Cat#LA3-5222, …); assay: ELISA blocking assay: human LAG-3 immobilized, antibody mixed with biotin labeled LSECtin, streptavidin-HRP, OD450-620
[11] = molecular target: T5, LAG-3 fusion protein comprising human …; assay: flow cytometry blocking assay: antibody premixed with hLAG-3-mFc, binding of hLAG-3-mFc to MHC class II on Daudi cells read as MFI

Binder	binding result [1]	binding result [2]	binding result [3]	Kd [4] [nM]	koff [4] [s⁻¹]	kon [4] [M⁻¹ s⁻¹]	Kd [5] [nM]	koff [5] [s⁻¹]	kon [5] [M⁻¹ s⁻¹]	Kd [6] [nM]	koff [6] [s⁻¹]	kon [6] [M⁻¹ s⁻¹]	Kd [7] [nM]	koff [7] [s⁻¹]	kon [7] [M⁻¹ s⁻¹]	EC50 [8] [nM]	EC50 [9] [nM]	IC50 [10] [nM]	IC50 [11] [nM]
B1	binds	–	–	–	–	–	–	–	–	–	–	–	–	–	–	–	–	–	–
B2	–	no binding (tested: about 20 nM)	no binding (tested: about 10 nM)	1.22	0.000676	554000	0.13	3.65e-05	280000	1.27	0.00058	457000	0.348	0.00062	1.78e+06	0.105	0.228	6.48	11.5
B3	–	no binding (tested: about 20 nM)	no binding (tested: about 10 nM)	–	–	–	–	–	–	–	–	–	2.08	0.000298	143000	0.637	1.99	–	31.5
B4	–	no binding (tested: about 20 nM)	no binding (tested: about 10 nM)	–	–	–	–	–	–	–	–	–	486	0.0448	92200	0.509	1.46	–	–
B5	–	no binding (tested: about 20 nM)	no binding (tested: about 10 nM)	–	–	–	–	–	–	–	–	–	38.4	0.000943	24600	–	–	–	–
B6	binds	–	–	–	–	–	–	–	–	–	–	–	–	–	–	–	–	–	–

Reference: patent publication US20190016800A1 (NANJING LEADS BIOLABS, published 2019)
